The target of assay [1] is T1, Human 5T4 antigen on cells (human, UniProt Q13641 32-420).
T1 construct: also called 5T4 oncofetal antigen
T1 sequence: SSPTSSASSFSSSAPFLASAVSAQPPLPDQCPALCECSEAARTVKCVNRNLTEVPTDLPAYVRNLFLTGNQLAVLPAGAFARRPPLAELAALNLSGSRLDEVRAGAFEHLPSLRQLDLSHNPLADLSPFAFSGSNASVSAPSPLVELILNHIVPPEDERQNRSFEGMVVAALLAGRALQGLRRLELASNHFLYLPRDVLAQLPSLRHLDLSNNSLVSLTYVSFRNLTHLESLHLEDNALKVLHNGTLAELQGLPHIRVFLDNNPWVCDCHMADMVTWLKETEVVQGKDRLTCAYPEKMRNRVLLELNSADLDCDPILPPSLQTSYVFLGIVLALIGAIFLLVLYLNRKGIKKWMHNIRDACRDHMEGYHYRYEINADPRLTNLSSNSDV
Nature of the assay: flow cytometry, 10 ug/mL, A431 cells. Here is the method:
(§1) Cells expressing the 5T4 antigen, and the negative control Raji cells, are plated at a density of 500,000 cells/well on non-tissue culture treated 96 well plates and kept on ice. Dilutions of the A1 and A1-IgG4 antibodies or A1-mcMMAF ADC are made in 3% bovine serum albumin BSA in Dulbecco's phosphate buffered saline (DPBS) and added to the plate at a final concentration of 10 μg/mL. The plates are then incubated on ice for 1 hour followed by 2 washes. The secondary antibody, PE (phycoerythrin) conjugated Goat Anti-Human IgG Fc is added to the wells. After 30 minutes of incubation at 4 C, the mean fluorescence intensity is then measured using a flow cytometer.

Assay [2] deals with T2, cynomolgus 5T4 ectodomain fused to the human IgG1-Fc domain (cynomolgus monkey; human, UniProt Q4R8Y9 35-355).
T2 construct: range 1-355; also called cyno5T4; not shown: Fc constant region from human IgG1
T2 sequence (looked up): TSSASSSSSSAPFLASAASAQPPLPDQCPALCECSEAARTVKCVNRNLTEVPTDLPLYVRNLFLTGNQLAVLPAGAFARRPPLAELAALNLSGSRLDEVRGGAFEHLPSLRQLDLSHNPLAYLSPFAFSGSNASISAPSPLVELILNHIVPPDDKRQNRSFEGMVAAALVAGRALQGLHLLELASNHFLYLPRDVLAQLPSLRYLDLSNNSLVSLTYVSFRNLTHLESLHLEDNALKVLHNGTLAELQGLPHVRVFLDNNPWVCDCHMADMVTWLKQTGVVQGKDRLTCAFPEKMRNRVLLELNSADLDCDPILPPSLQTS
Nature of the assay: SPR (BIAcore), immobilized 5T4-Fc, pH 6.0. The method, then: (§2) Surface plasmon resonance (SPR) analysis is performed utilizing the BIAcore® to determine the affinity constants for A1-IgG1 and A1-IgG4 binding to either human or cynomolgus 5T4 at pH 6.0 and pH 7.4. BIAcore® technology utilizes changes in the refractive index at the surface layer upon binding of the huA1 antibody variants to the human 5T4 protein immobilized on the surface layer. Binding is detected by SPR of laser light refracting from the surface. Analysis of the signal kinetics on-rate and off-rate allows the discrimination between non-specific and specific interactions. The 5T4 proteins used for this analysis consisted of the human or cynomolgus 5T4 ectodomain fused to the human IgG1-Fc domain and low densities (45.1 and 45.4 RU for human and cynomolgus respectively) are immobilized onto a CM5 chip to accurately measure affinity constants.
(§3) The measurement of specific binding to the 5T4 ectodomain is attained by subtracting binding to a reference surface that had only human IgG1-Fc protein immobilized onto the CM5 chip at the same density to that on the 5T4-Fc surfaces. Next, various concentrations of A1, A1-IgG4, or A3 antibodies in either HBS-EP pH 7.4 or MES-EP pH 6.0 buffer are injected over the surface. The surface is regenerated two times with Glycine pH 1.7+0.05% Surfactant P20 (GE Healthcare, BR-1000-54) between injection cycles.

The target in assay [3] is T3, human 5T4 ectodomain fused to the human IgG1-Fc domain (human, UniProt Q13641 32-355).
T3 construct: also called hu5T4; 5T4-Fc; not shown: Fc constant region from human IgG1
T3 sequence: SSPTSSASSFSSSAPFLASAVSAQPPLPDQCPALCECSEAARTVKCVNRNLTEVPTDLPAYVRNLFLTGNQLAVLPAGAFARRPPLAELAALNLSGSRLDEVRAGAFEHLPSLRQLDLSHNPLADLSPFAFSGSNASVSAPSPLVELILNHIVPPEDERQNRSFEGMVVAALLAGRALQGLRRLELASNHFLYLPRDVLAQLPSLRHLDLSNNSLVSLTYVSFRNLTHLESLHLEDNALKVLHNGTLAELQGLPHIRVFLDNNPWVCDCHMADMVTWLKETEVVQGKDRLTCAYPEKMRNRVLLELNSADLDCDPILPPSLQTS
Nature of the assay: SPR (BIAcore), immobilized 5T4-Fc, pH 6.0. The method, then: as §2, §3

Assay [4] addresses T2, cynomolgus 5T4 ectodomain fused to the …. Nature of the assay: SPR (BIAcore), low-density 5T4-Fc surface, pH 7.4. Here is the method: as §2, §3
For assay [5], the target named is T3, human 5T4 ectodomain fused to the human …. Nature of the assay: SPR (BIAcore), low-density 5T4-Fc surface, pH 7.4. The method, then: as §2, §3
Assay [6] has as its target T2, cynomolgus 5T4 ectodomain fused to the …. Nature of the assay: SPR (BIAcore), immobilized 5T4-Fc, pH 6.0. Here is the method:
as §2, §3
This is another data set of the same source.

Assay [7] addresses T3, human 5T4 ectodomain fused to the human …. As to the kind of experiment: SPR (BIAcore), immobilized 5T4-Fc, pH 6.0. Here is the method: as §2, §3
This is another data set of the same source.

The target of assay [8] is T2, cynomolgus 5T4 ectodomain fused to the …. Nature of the assay: SPR (BIAcore), low-density 5T4-Fc surface, pH 6.0. Here is the method: as §2, §3
In assay [9] the target is T3, human 5T4 ectodomain fused to the human …. As to the kind of experiment: SPR (BIAcore), low-density 5T4-Fc surface, pH 6.0. Here is the method: as §2, §3
Assay [10] addresses T2, cynomolgus 5T4 ectodomain fused to the …. As to the kind of experiment: SPR (BIAcore), immobilized 5T4-Fc, pH 7.4. The method, then:
as §2, §3

Assay [11] addresses T3, human 5T4 ectodomain fused to the human …. Nature of the assay: SPR (BIAcore), immobilized 5T4-Fc, pH 7.4. Here is the method: as §2, §3
Assay [12] concerns the target T4, mouse 5T4 (mouse, UniProt Q9Z0L0 32-361, limits assumed).
T4 sequence (looked up): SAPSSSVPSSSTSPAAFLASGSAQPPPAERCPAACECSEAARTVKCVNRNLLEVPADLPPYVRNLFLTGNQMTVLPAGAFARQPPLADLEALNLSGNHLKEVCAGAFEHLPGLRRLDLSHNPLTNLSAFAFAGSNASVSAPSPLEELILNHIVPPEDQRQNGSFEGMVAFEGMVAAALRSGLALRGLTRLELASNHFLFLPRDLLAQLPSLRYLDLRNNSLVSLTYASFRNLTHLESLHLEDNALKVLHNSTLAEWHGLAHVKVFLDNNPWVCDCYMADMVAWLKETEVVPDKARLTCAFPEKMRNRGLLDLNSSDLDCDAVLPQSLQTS
Nature of the assay: ELISA (Example 7).

The target in assay [13] is T1, Human 5T4 antigen on cells. As to the kind of experiment: flow cytometry, 10 ug/mL, MDAMD361-DYT2 cells. Here is the method: as §1
Assay [14] concerns the target T1, Human 5T4 antigen on cells. As to the kind of experiment: flow cytometry, 10 ug/mL, MDAMB468 cells. The method, then: as §1
Assay [15] deals with T2, cynomolgus 5T4 ectodomain fused to the …. As to the kind of experiment: SPR (BIAcore), immobilized 5T4-Fc, pH 7.4. Here is the method:
as §2, §3
This is another data set of the same source.

In assay [16] the target is T3, human 5T4 ectodomain fused to the human …. Nature of the assay: SPR (BIAcore), immobilized 5T4-Fc, pH 7.4. The method, then:
as §2, §3
The source holds these as a separate data set.

The target in assay [17] is T1, Human 5T4 antigen on cells. Nature of the assay: flow cytometry, 10 ug/mL, PC3mm2 cells. Here is the method: as §1
For assay [18], the target named is T2, cynomolgus 5T4 ectodomain fused to the …. As to the kind of experiment: SPR (BIAcore), immobilized 5T4-Fc, pH not printed in this row (7.4 by the order of the table); row shifted one column to the left; pH 7.4 (pH cell missing; inferred from the order of the table). The method, then:
as §2, §3

Assay [19] shares this target. Nature of the assay: SPR (BIAcore), immobilized 5T4-Fc, pH not printed in this row (7.4 by the order of the table); row shifted one column to the left; pH 7.4. The method, then: as §2, §3

B1: A1 (a humanized anti-5T4 IgG1 antibody) (antibody)
heavy: not shown
light: DIQMTQSPSSLSASVGDRVTITCKASQSVSNDVAWYQQKPGKAPKLLIYFATNRYTGVPSRFSGSGYGTDFTLTISSLQPEDFATYYCQQDYSSPWTFGQGTKVEIKRTVAAPSVFIFPPSDEQLKSGTASVVCLLNNFYPREAKVQWKVDNALQSGNSQESVTEQDSKDSTYSLSSTLTLSKADYEKHKVYACEVTHQGLSSPVTKSFNRGEC
notes: also called A1-IgG1; A1 antibody
In the case of B1, the “Mean Fluorescent Intensity” value in assay [1] was determined as 3900; in assay [13], 7000; in assay [14], 3500; in [17], 3400. The Kd in assay [2] stood at 2.76 nM; in [3], 1.06 nM; in assay [6], 2.76 nM; in [7], 1.06 nM; in assay [10] it was 1.8 nM; in assay [11] it was 0.48 nM. The Kd in assay [15] is 1.8 nM; in assay [16], 0.48 nM. Besides, the koff in assay [2] was determined as 0.000641 s⁻¹; in assay [3], 0.000459 s⁻¹; in assay [6], 0.000641 s⁻¹; in assay [7] it was 0.000459 s⁻¹; in [10] it was 0.000273 s⁻¹; in assay [11], 0.000132 s⁻¹. Besides, the koff in assay [15] amounted to 0.000273 s⁻¹; in assay [16], 0.000132 s⁻¹. Besides, the kon in assay [2] amounted to 233000 M⁻¹ s⁻¹; in assay [3], 431000 M⁻¹ s⁻¹; in assay [6], 233000 M⁻¹ s⁻¹; in [7], 431000 M⁻¹ s⁻¹; in [10], 151000 M⁻¹ s⁻¹; in [11], 275000 M⁻¹ s⁻¹. The kon in assay [15] is 151000 M⁻¹ s⁻¹; in assay [16], 275000 M⁻¹ s⁻¹. Further, the results for the “fold better binding compared to A1-IgG4” value in [4] and in assay [8] were 1.2 fold and 1.7 fold, respectively. The “fold higher affinity relative to A1-IgG4” value in assay [5] turned out to be 1.2 fold; in assay [9], 1.5 fold. Moreover, the binding result in assay [12] is listed as “no binding”.

B2: A1-IgG4 (a humanized anti-5T4 IgG4 antibody) (antibody)
heavy: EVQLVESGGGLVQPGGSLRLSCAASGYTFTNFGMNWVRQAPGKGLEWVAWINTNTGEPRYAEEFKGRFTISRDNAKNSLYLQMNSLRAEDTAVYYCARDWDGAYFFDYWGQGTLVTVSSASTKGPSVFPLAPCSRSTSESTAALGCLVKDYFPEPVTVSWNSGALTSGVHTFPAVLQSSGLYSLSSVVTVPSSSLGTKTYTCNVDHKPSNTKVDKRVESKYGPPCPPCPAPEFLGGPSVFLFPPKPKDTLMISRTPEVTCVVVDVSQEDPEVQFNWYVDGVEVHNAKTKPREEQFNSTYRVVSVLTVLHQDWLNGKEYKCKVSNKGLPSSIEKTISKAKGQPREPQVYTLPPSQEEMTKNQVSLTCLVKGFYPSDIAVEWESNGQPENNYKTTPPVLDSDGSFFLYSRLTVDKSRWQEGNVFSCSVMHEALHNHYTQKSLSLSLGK
light: B1 light
notes: Same variable domains as A1, human IgG4m heavy chain; also called A1-IgG4 Ab; Humanized A1 human IgG4m
B2: the “Mean Fluorescent Intensity” value in assay [1] was 2400; in assay [13], 5500; in assay [14], 2500; in assay [17], 2100. In addition, the Kd amounted to 4.7 nM in [6], 1.43 nM in assay [7], 2.11 nM in assay [10] and 0.52 nM in assay [11]. Further, the koff in [6] came out at 0.00095 s⁻¹; in assay [7], 0.000893 s⁻¹; in assay [10], 0.000382 s⁻¹; in assay [11], 0.000172 s⁻¹. The kon in assay [6] is 202000 M⁻¹ s⁻¹; in assay [7], 626000 M⁻¹ s⁻¹; in [10], 181000 M⁻¹ s⁻¹; in assay [11], 328000 M⁻¹ s⁻¹.

B3: A3 (a mouse/human chimeric antibody) (antibody, human IgG1, kappa, V domains shown)
VH: EVQLVESGGGLVQPKGSLKLSCAASGFTFNTYAMNWVRQAPGKGLEWVARIRSKSNNYATYYADSVKDRFTISRDDSQSMLYLQMNNLKTEDTAMYYCVRQWDYDVRAMNYWGQGTLVTVSS
VL: DIVMTQSHIFMSTSVGDRVSITCKASQDVDTAVAWYQQKPGQSPKLLIYWASTRLTGVPDRFTGSGSGTDFTLTISNVQSEDLADYFCQQYSSYPYTFGQGTKLEIKR
notes: also called Chimeric A3; muA3-huIgG1
Regarding B3, the Kd in [2] stood at 0.41 nM; in assay [3], 0.12 nM; in [19], 0.82 nM; in assay [16] it was 0.17 nM. The koff came to 0.000187 s⁻¹ in assay [2], 4.17e-05 s⁻¹ in assay [3], 0.000162 s⁻¹ in assay [19] and 3.06e-05 s⁻¹ in assay [16]. Moreover, the association rate constant (kon) in assay [2] stood at 458000 M⁻¹ s⁻¹; in assay [3] it was 351000 M⁻¹ s⁻¹; in [18], 198000 M⁻¹ s⁻¹; in assay [16], 179000 M⁻¹ s⁻¹. Besides, the binding result in assay [12] was “no binding”.
